B1: CPEB3 Ribozyme (parent)
chain: UAACAGGGGGCCACAGCAGAAGCGUUCACGUCGCAGCCCCUGUCAGAUUCUGGUGAAUCUGCGAAUUCUGCUGUAUAUCUC

Among the data in the RNAGym collection of RNA variant scans (doi:10.1093/nar/gkz1192) are self-cleavage values, retold here.

The variants in this data set derive from B1. In words: self-cleavage, relative activity (ratio to wild type); higher = more cleavage; in vitro, sequencing. In a few lines: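 Libraries of CPEB3 self-cleaving ribozyme mutants came from rounds of error-prone PCR and carried barcodes, which DNA sequencing matched to variants. In vitro transcription used T7 RNA polymerase at 37°C for 5 hours, with a further 15 min in DNase I before EDTA stopped the reaction; the ribozymes cleaved during both steps. The RNA was reverse transcribed with template switching and sequenced on Illumina. Relative activity is the cleaved/total read fraction of a variant divided by that of the unmutated ribozyme, averaged over three batches with at least 5 reads.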
In the case of C39A A65G, the self-cleavage is 0.11.
In the case of U25C U49C it was 0.21; in that of A75U U78A, 1.11; in that of G33A U67C, 0.22.
In the case of G24A U66C it was 0.39; in that of U66C U67G, 0.32.
As to A64G C79U, the self-cleavage was 1.1.
As for A35G G36C, the self-cleavage was determined as 0.29.
As for C12A A15G, the self-cleavage is 1.19.
G9A U69C: the self-cleavage turned out to be 0.1.
In the case of A56U U60A, the self-cleavage is 0.3.
With A18U U76G the figure was 0.3; with G42A C59G, 0.23.
Turning to U26C U41G, the self-cleavage came out at 0.31.
Take U1A C29U: the self-cleavage was found to be 0.52.
In the case of G42A A75G it was 0.28; in that of G36C A56G, 0.21; in that of G36A C44G, 0.14.
With G33C G36C the figure was 0.15; with U41C A45U, 0.68; with C4U U72C, 1.12.
Turning to A28G A45C, the self-cleavage is 0.33.
Regarding C32A U43A, the self-cleavage came out at 0.5.
As to G30C U60A, the self-cleavage was found to be 0.13.
With G8U U67C the figure was 0.23; with A35U U67G, 0.35; with A45U U69G, 0.51.
In the case of A3G A28C it was 0.73.
In the case of G36A A77C it was 0.48.
Take C44G U49A: the self-cleavage was 0.23.
With C39A G73C the figure was 0.76; with U25C G36A, 0.17.
With A3U U43A the figure was 0.77; with G8A A15G, 0.3.
As for U66G U72C, the self-cleavage was 0.61.
In the case of G36C G61U it was 0.12.
In the case of G30A U31G, the self-cleavage was 0.21.
With A21U U60A the figure was 0.3.
In the case of A18G U49C, the self-cleavage came out at 0.29.
In the case of U51G U60C it was 0.39; in that of G24A C71G, 0.09; in that of U26C A77G, 0.46.
With A13G C59U, the self-cleavage was 0.8.
For C12U U26A, the self-cleavage worked out at 1.19.
As for C11U C50U, the self-cleavage was 0.4.
With G36C G55A the figure was 0.12; with A47G C68A, 0.43.
On to C4U U66C, for which the self-cleavage amounted to 0.59.
With A35U C62U, the self-cleavage worked out at 0.13.
With G16U U69A the figure was 0.22.
For C71U U80C, the self-cleavage was determined as 1.23.
A28G A57C: the self-cleavage was found to be 0.16.
With C11U A64G the figure was 0.34; with A3G U26C, 0.65.
With U1C A64U the figure was 0.26; with A2U G16A, 0.18; with U31A U51G, 0.33.
With G55C A64U the figure was 0.23.
As to C29U A75G, the self-cleavage worked out at 0.46.
In the case of U48A U54C it was 0.39; in that of U51C A77U, 0.95; in that of A35U C39U, 0.49.
For the variant A35U C39A, the self-cleavage amounted to 0.27.
Regarding A15U C32A, the self-cleavage came out at 0.24.
With U25C G33U, the self-cleavage stood at 0.15.
In the case of A15G A18C it was 0.37; in that of A3C U54C, 1.17.
As for A18G A21U, the self-cleavage was found to be 0.33.
For A28U U67G, the self-cleavage came out at 0.2.
As for G19U U67C, the self-cleavage worked out at 0.13.
With U31C A64C the figure was 0.14; with U60A U72G, 0.61; with A47C U69C, 0.25.
With A5U A35G, the self-cleavage stood at 1.19.
In the case of A15U U76A, the self-cleavage worked out at 1.17.
Turning to C4A, the self-cleavage worked out at 1.22.
On to A64U A75G, for which the self-cleavage was determined as 0.35.
Regarding G22C, the self-cleavage was 0.26.
With U54G U78C the figure was 0.68; with A2U A57G, 0.83; with G63U A65U, 0.51.
Turning to C4U U26A, the self-cleavage worked out at 1.13.
With U26G U60C the figure was 0.11; with C4G A13C, 1.17.
In the case of A5U U58C it was 0.61; in that of C32A U72C, 0.17; in that of C34U A47G, 0.43.
In the case of C59A U76A it was 0.43.
Take G10A A20C: the self-cleavage worked out at 0.22.
As to C39G U80A, the self-cleavage was 0.09.
Turning to U31C G55U, the self-cleavage was 0.76.
With A3U U69C the figure was 0.69; with U25G A35G, 0.9; with C71A, 0.33.
In the case of C12U U67C, the self-cleavage was 0.3.
With A13C A35U the figure was 0.42.
In the case of U43G C62U it was 0.26; in that of A47G A57C, 0.36.
In the case of C11G C32A it was 0.31; in that of A20G U25G, 0.41; in that of A20G U25C, 0.3.
With G8C A18U, the self-cleavage is 0.23.
In the case of C12U U43A it was 1.24.
In the case of G70A U74C it was 0.69; in that of A64G U66A, 0.32; in that of C38A U60A, 0.2.
Consider A3C U43A, for which the self-cleavage stood at 1.24.
In the case of A15U A77U, the self-cleavage is 0.71.
Take U54G C62U: the self-cleavage worked out at 0.19.
With U60C C68A the figure was 0.32; with C17G A47G, 0.28; with A13G U26G, 0.21.
In the case of U25A U80A it was 0.45; in that of C4U G9U, 0.17; in that of A5U G16U, 0.66.
With C68U U78C the figure was 1.03; with G8U U49C, 0.22.
G53U U74C: the self-cleavage worked out at 1.18.
With C11G U43C the figure was 0.29; with A5U U43A, 1.24; with A35C U78A, 0.74.
In the case of G52A A77U it was 0.98; in that of U60A U78C, 0.44.
With U58G U74A the figure was 0.31.
In the case of U48G U54C, the self-cleavage worked out at 0.19.
In the case of G53A U66C it was 0.53; in that of A18G U69C, 1.18.
For the variant A15U A28C, the self-cleavage was 0.33.
In the case of A20U C37U, the self-cleavage was 0.21.
U60A: the self-cleavage was found to be 0.57.
With A2U U58A, the self-cleavage came out at 0.35.
As to U25C U41A, the self-cleavage came to 0.3.
A47C U78G: the self-cleavage amounted to 0.46.
In the case of C12U U54C it was 1.27; in that of A5C C50A, 0.8.
With A21C G46A, the self-cleavage amounted to 0.37.
With C11U A13C the figure was 0.09.
In the case of C17G A18U it was 0.4; in that of U26A U58A, 0.23; in that of U67C U74C, 0.37.
With G10A A56U the figure was 0.12; with C4U U25A, 0.31.
Regarding G61A U72C, the self-cleavage is 0.73.
With A65G G73U the figure was 1.19; with C29G A64G, 0.41.
As to U25A U74C, the self-cleavage amounted to 0.33.
On to A15U C17A, for which the self-cleavage came to 0.6.
Take A15G C81U: the self-cleavage came out at 1.02.
In the case of U31C C38A, the self-cleavage was 0.33.
As to G9A A18U, the self-cleavage stood at 0.14.
Turning to U58A U60C, the self-cleavage was 0.23.
In the case of A2U U72A it was 0.67; in that of A20U G24A, 0.09; in that of U41C G52C, 1.12.
In the case of A5G U78C it was 0.63.
U41A U43C: the self-cleavage worked out at 0.27.
In the case of U51A G52U it was 1.16.
For the variant C44U A45C, the self-cleavage came out at 0.46.
With G10U U58C the figure was 0.34; with U25C A45G, 0.26; with U31G A45G, 0.37.
In the case of G10A G55U it was 0.07; in that of A15C A47U, 0.17; in that of C11G A56C, 0.38.
With G36A U66C, the self-cleavage was determined as 0.33.
With U48A U69A the figure was 0.18; with U25C C38U, 0.68.
